Test results reported in the nanobody polyreactivity screen of Harvey et al. (2022).

Assay: yeast display, Sf9 membrane polyspecificity reagent, FACS + sequencing; frameworks hold sequencing errors
How it was run: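 Polyreactivity labels are assigned by the sorting gate from which each nanobody was recovered. The gates were low and high (top ~1%), set on anti-HA fluorescence for expression and streptavidin fluorescence for reagent binding. Before sorting, galactose-induced (36–48 hours) yeast display cells were stained for 1 hour at 4 °C with 10% biotinylated, detergent-solubilized Sf9 membrane reagent.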

Row | Sequence | polyreactivity (PSR sort gate)
1 | QVQLVESGGGLVQAGGSLRLSCAASGSTFISYAMGWYRPAPGKERELVAAISRNGGSTDYADSVKGRFTISRDNAKNSVYLQMNSLKPEHTAVYYCAAEYDTWWGGYDYWGQGTQVTVSS | high polyreactivity
2 | QVQLVESGGGLVQAGGSLRLSCAASGRTFYSNSMGWYRQAPGKERELVATISWRGGSTYYADSVKGRFTISRDNAKNTVYFQMHSLKPEDTAVYYCAAGYYPYWGQGTQVTVSS | low polyreactivity
3 | QVQLQECGGGLVQAGGSLRLSCAASGNIFDADIMGWYSQAPGKERELVDSVTDGGSTNYADSVKGRFTISRDNAKNTVYLQMNSLKPEHTAVYYCAAIVYPDILTYFDYDYDYFYWGQGTQVTVGS | low polyreactivity
4 | QVQHVESGGGLVQAGGSLRLSCAASGSINSNAMGWYRQARGKERELVAAISGSGSTTYYADSVKGRFTISRDNAKNTVYLKMNSLKPEDTAVYYCARGVYGRGRTERYYWGQGTQVIVSS | high polyreactivity
5 | QVQLVESGGGLVQAGGSLRLSCAASGRIFYANAMGWYRQAPGKERELVAAISQSGGSTFYADSVKGRFTISRDNAKNTVYLQMNSLKPEDTAVYYCATEYYGPVYDLDYDYWGQGTQVTVSS | low polyreactivity
6 | QVQLVESGGGLVQAGGSLRLSCAASGRTIWVYTMGWYRQAPGKERELVATINYRGGSTYYADSVKGRFTISRDNAKNTVYLQMNSLKPEDTAVYYCAADYSPPYPRYPYDYWGQGTQVTVSS | high polyreactivity
7 | QVQLVESGGGLVQAGGSLLLSCAASGRIFRPYAMGWYRQAPGKERELVAAISSSGGSTYYADSVKGRFTISRDNAKNTVYLEMNSLKPEDTAVYYCAARITQISYGSEIEHPYYYWGQGTQVTVSS | high polyreactivity
8 | QVQLVESGGGLVQAGGSLRLSCAASGSTFWYYAMGWYRPAPGKERELVAAITISGGSTYYADSVKGRFTISRDNAKNTVYLQMNSLKPEDTAVYYCATDDTHRVGWFDYWGQGTQVTVSS | low polyreactivity
9 | QVQLEESGVGLVQAGGSLRLSCADSGFSFRTNAMGWYRQAPGKERELVAAISRSSGSTYYADSVKGRFTISRDNSKNTVYLQMNSMKPEETAVYYCNAVRYYSRGYTRYDYWGQGSQVTVSS | high polyreactivity
10 | QVQLVESGGGLVQAGGSLRLSGAASGLIFWGYTMGWYRQAPGKERVLVAAISRRGGRTYYADSVKGRFTISRDNAKNTVYLQMHSLKPEDTAVDYCNADITSSGPKSDYWGQGTQVTVSS | high polyreactivity
11 | QVQLVESGGGLVQAGGSLRLSCAASGIILTVYAMGWYRQAPGKERELVATISRRGGNTYYADSVKGRFTISRDNAKNTVYLQMNSLKPEDTAVYYCNKAYQYGGYYYWGQGTQVTVSS | high polyreactivity
12 | QVQLVESGGGLVQAGGSLRLSCAASGFTFEIYAMGWYRQAPGKERELVAAITWSGGSTDYADSVKGRFTISRDNAKNSVYFQMNSLKPEDTAVYYCAAVTVQYVGYGYWGQGTQVTVSS | low polyreactivity
13 | QEQLLDSGGGLVQAGGSLRLSCAASGYFSSHILSWYRQGPGKVREFVDTITDGGTTDYADSVKGRFTISRDNAKNTVYLQMNSLNPQDTAVYYCAAVATYSYHFGYWGHGTQVTVSS | high polyreactivity
14 | QVQLVESGGGLVQAGGSLRLSCAASGYTFGPYAMGWYRQAPGKERELVAAITTRGGSTYYADSVKGRFTISRDNAKNTVYLQMNSLKPEDTAVYSCAAVVNSKSIQRVVRYYYWGQGTQVTVSS | high polyreactivity
15 | QVQLVESGGGLVQAGGSLRLSCAASGFTFSRYAMGWYRPAPGKERELVAAISTRGGRTYYADSVKGRFTISRDNAKNTVYLQMNSLKPEDTAVYYCAADATVGSSDYWGQGTQVTVSS | high polyreactivity
16 | QVQLVESGGGLVQAGGSLRLSCAASGRTFSRYAMGWYRQAPGKERELVAAISRGGGSTNYADSVKGRFTISRDNAKNTVYLQMNSLKPEDTAVYYCASEYRYDWYTYGSWGQGTQVTVSS | high polyreactivity
17 | QVQLVESGGGLVQAGGSLRLSCAASGSIFYYYAMGWYRQAPGKERELVAAISTSSGRTYYADSVKGRFTISRDNAKNTVYLQMNSLKPEDTAVYYCATRYRRDGGSWGQGTQVTVSS | high polyreactivity
18 | QVQLVESGGGLVQAGGSLRLSCAASGSIFVNNAMGWYRQAPGKERELVAAITCSTGSTYYADSVKGRFTISRDNAKNTVYLQMNSLKPEDTAVYYCAATSYTATWRYYYWGQGTQVTVSS | high polyreactivity
19 | QVQLVESGRGLVQAGGSLRLSCAASGSTFVYNVMGWYRQAHGKERELVAAIRRRGGSTYADSVKGRFTITRDNAKNTVYLQMNSLNPEVTAVYYCAAGIPRYWYAGHYDYWGQGTKVTVSS | low polyreactivity
20 | QVQLVESGGGLVQAGGSLRLSCAASGITFVSNGMGWYRTAPGKERELVAAITRSGGSTYYADSVKGRFTISRDNAKNTVYLQMNSLKPEDTAVYYCNARTSRYRRGGDSWGQGTQVTVSS | high polyreactivity
21 | QVQLVESGGGLVQAGGSLRLSCAASGSIFGSNTMGWYRQAPGKEREFVAAISFSGGSTYYADSVKGRFTISRDNAKNTVYLQMNSLKPEDTAVYYCAARQRRVGTSFYSSRRDYWGQGTQVTVSS | high polyreactivity
22 | QVQLVESGGGLLQAGGSLRLSCAASGRNFKYYAMGWYRQAPGKEREFVAAISRSGGRTYYADSVKGRFTISRDNAKNTVYLQMNSLKPEDTAVYYCAAQPSSYVYYRQPFHYWGQGTQVTVSS | high polyreactivity

Row | Sequence | polyreactivity (PSR sort gate)
23 | QVQLVESWGGLVQAGGSLRLSCAASGLPSKLMLMVWYRQAPGKERELVAAISSSGGRTYYADSVKGRFTISRDNAKITVYLQMNSLKPEDTAVYYCAAYFPRTLFEFGYWGQGNQVTVSS | high polyreactivity
24 | QVQLVESGGRLVQAGGSLRLSCAASGIIFVSYMGWYIQAPGQERELVAAIRWSGGRTYYADSVKGRFTISRDNAKNTVYLQMTSLKPEDTAVYNCATAPYICAYSLPHHDSWGQGTQVTVSS | high polyreactivity
25 | QVQLVESGGGLVQAGGSLRLSCAASGSTFYFYVMGWYRQAPGKERELVAAITWSGGRTSYADSVKGRFTISRDNAKNTVYLQMNSLKPEDTAVYYCAKDLQNSSHPSRYDYWGQGTQVTVSS | low polyreactivity
26 | QDQLVESAGGLVQAGGSLRLSCAASGSTFVRNAMGWYRQEPGKERELVAAISVDGSSTYYADSVKGRFTISRDIAKNTVYLQMNSLKPEVTAVYYCNADWDYRDFYAITYDFWGQGTQVTVSS | low polyreactivity
27 | QVQLVESGGGLVQAGGSLRLSCAASGSTLPVNAMGWYRQAPGKERELVAAINRDGSTNYADSVKRPFTFSRDNAKNTVYLQMNSLKQEDTAVYYCAADGFGYPGKRYDYWGQGTQVTVSS | low polyreactivity
28 | QVQLVESVGGLVQAGGTLSLSCAASGFTFRNYAMGWYRQAPRKEREFVAAISRRGGSTYYADSVKGRITISRDNAKNTVYLQINSLKPEDSAVYYCATEPGKQNTYRMDYCGQGTQVTVSS | high polyreactivity
29 | QVQLVESGGGLVQAGGSLRLSCAASGFIFRYYAMGWYRQAPGKERELVAAISSGGRTSYADSVKGRFTISRDNAKNTVYLQMNSLKPEDTAVYYCAADRWRGLFYYGNDYWGQGTQVTVSS | high polyreactivity
30 | QVQLVESGGRLVQAGGRLRLSCAASGRIFRYYTLGWYRQAPGKERELVAAITRRGGITNYADSVKGRFTISRDNAKNTVYLQMNSLKPEDTAVYYCAAKYVSQGYDYWGQGTQVTVSS | high polyreactivity
31 | QVQLVESGGGLVQAGGSLRLSCAASGSIYWYAMGWYRQAPGKERELVAAISRRGGSTYYADSVKGRFTISRDNDKNTVYLQMNSLKPEDTAVYYCAVGIYGEYDYWGQGTQVTVSS | high polyreactivity
32 | QVQLVESGGGLVQAGGSLRLSCAASGGIFGYYAMGWYRQAPGTEREFVAAITARGGRTYYADSVKGRFTISRDNAKNTVYLQMNSLKPEDTAVYDCAAYSPVWGRYYHRVERDYWGQGTQVTVSS | high polyreactivity
33 | QVQLVESGGGLVQAGGSLRLSCAASGITFSGNAMGWYRQAPGKERELVAAITWRGDNTYYADSVKGRFTISRDNAKNTVYLQMNSLKPEDTAVYSCAAKSPLFGLTSYPGPDDSWGQGTQVTVSS | low polyreactivity
34 | QVQLVESGGGLVQAGGSLRLSCAASGRIFYWNAMGWYRQEPGKEREFVAAIRLSSGSTYYADSVKGRFTISRDNAKYTVYLQLNSLKPVDTAVYYCATRTYTYWGGSYPHFYWGQGTQVTVSS | high polyreactivity
35 | QVQLVESGGGLVQAGGSLRLSCAASGSIFLWYDMGWYRQAPGKEREFVASITRSGGSTYYADSVKGRFTISRDNAKNTVYLQMNSLKPEDTAVYYCAAGRRSSWRYYLWYDYWGQGTQVTVSS | low polyreactivity
36 | QVQLVESGGGLVQAGGSLRLSCAASGFIFHYNAMGWYRPAPGKERELVAAITSGDSTDYADSVKGRFTISRDNAKNTVYLQMNSLKREDTAVYYCAAAEGYLSKYENDYWGQGTQVTVSS | low polyreactivity
37 | QVQLVESGGGLVQAGGSLRLICAASGFTFFSYTMGWYRQAPGKERELVAAISKRGSRTYYADSVKGRFTISRDNAKNTVYLQMNSLKQEDTAVYYCAADSGPEVVHRREDYWGQGTQVTLSS | high polyreactivity
38 | QVQLVESGGGLVQAGGSLRLSCAASGFIFRYYAMGWSRQAPGKERELVAVISSNGARTSYADSVKGRFTISRDNAKNTVYLQMNSLKPEDTAVYYCNARAWSRFPPVGHDYWGQGTQVTVSS | high polyreactivity
39 | QVQLVESGGGLVQAGGSLRLSCAASGSTFLYYAMGWYRPAPGKERELVAAIRWTAGSTYYADSVKGRFTISRDNAKNSVYLQMNSLKPEDTAVYYCAAVGYVRNYYTYEHWGQGTQVTVSS | low polyreactivity
40 | QVQLVETGGGLVQAGGSLSLSCAASGRTCRFYAMGWYRQAPGKERELVGAISWNGGRTYYADSVKGRFTISRDNAKNSVYLQMNSLKPEDTAVYFCNARAYGSRKFEYWGQGTQVTVSS | high polyreactivity
41 | QVQLVESGGGLVQAGGSLRLSCAASGRSFRYNAMGWYRQAPGKARELVAAISSGGSTNYADSVKGRFTTTRDNAKNTVYLQMNSLKPEDTAVYYCNAVYVHRYPGWGYDYWGQGTQVTVSS | low polyreactivity
42 | QVQLVESGGGLVQAGGSLRLSCAASGRIFDYYAMGWYRQAPGKERELVAAIDWRGDRTYYADSVKGRFTISRDNAKNTVYLQMNSLKPEDTAVYYCNVLDTRQVGGYRFDYWGQGTQVTVSS | low polyreactivity
43 | QVQLVESGGGLVQAGGSLRLSCAASGSTSTLYAMGWYRQAPGKERELVAAISKSGGRTYYADSVKGRFTISRDNAKNTVYLQMNSLKPEDTAVYYCAALAVYPRRFDYWGQGTQVTVSS | high polyreactivity
